Assay results taken from paper PMC12607630, “ZapC crosslinks FtsZ filaments through a dual-binding mechanism modulated by the intrinsically disordered linker of FtsZ in Escherichia coli” (mBio, 2025).
Where “and” joins values, the source holds several entries; their conditions need not be identical. Equal values may be shown once.

B2: ZapC (untagged) (natural protein)
chain: not shown
notes: ZapC, FtsZ-associated protein of Escherichia coli; source: E. coli BL21(DE3), plasmid pLY28, purified (Ni-NTA); 6×His-SUMO tag removed with Ulp1; not shown: 6×His-SUMO, N-terminal, cleaved
B4: FtsZ (wild-type, untagged) (natural protein, Escherichia coli, UniProt P0A9A6 1-383, looked up)
chain: MFEPMELTNDAVIKVIGVGGGGGNAVEHMVRERIEGVEFFAVNTDAQALRKTAVGQTIQIGSGITKGLGAGANPEVGRNAADEDRDALRAALEGADMVFIAAGMGGGTGTGAAPVVAEVAKDLGILTVAVVTKPFNFEGKKRMAFAEQGITELSKHVDSLITIPNDKLLKVLGRGISLLDAFGAANDVLKGAVQGIAELITRPGLMNVDFADVRTVMSEMGYAMMGSGVASGEDRAEEAAEMAISSPLLEDIDLSGARGVLVNITAGFDLRLDEFETVGNTIRAFASDNATVVIGTSLDPDMNDELRVTVVATGIGMDKRPEITLVTNKQVQQPVMDRYQQHGMAPLTQEQKPVAKVVNDNAPQTAKEPDYLDIPAFLRKQAD
notes: FtsZ, Escherichia coli; Made from the same 6×his-sumo-ftsZ plasmid as the fusion that the methods call full-length FtsZ; also called wild-type FtsZ; untagged FtsZ; source: E. coli BL21(DE3), plasmid pLY17, purified (Ni-NTA; 6×His-SUMO tag removed with Ulp1); not shown: 6×His, N-terminal, cleaved; SUMO, N-terminal, cleaved
B5: 6×His-ZapC (natural protein)
chain: not shown
notes: ZapC, Escherichia coli; also called His-tagged ZapC; source: E. coli, plasmid pSD323 (pQE80, Plac::6×His-ZapC), purified (Ni-NTA) as for FtsZ; not shown: 6×His, N-terminal, kept
B6: ZapC (untagged) (natural protein)
chain: not shown
notes: ZapC, Escherichia coli; also called untagged ZapC; source: E. coli, plasmid pLY28 (pE-SUMO-Amp, PT7::6×his-sumo-zapC), purified (Ni-NTA; 6×His-SUMO tag removed with Ulp1); not shown: 6×His, N-terminal, cleaved; SUMO, N-terminal, cleaved

How the values were obtained:
Conditions in all cases: both partners purified
[1] = target: T1, FtsZ (untagged, wild type) (Escherichia coli, UniProt P0A9A6 1-383); assay: BLI; 6×His-ZapC or its mutants (0.5 µM) loaded on Ni-NTA biosensors, untagged FtsZ or its variants in solution; Octet-Red96, 30°C, 1× Pol buffer (50 mM HEPES-NaOH pH 6.8, 50 mM KCl, 10 mM MgCl2); apparent Kd from the signal at the end of association against concentration, one-site fit; three repeats with mean (X) and SD
T1 construct: also called wild-type FtsZ; source: E. coli BL21(DE3), plasmid pLY17, purified (Ni-NTA); 6×His-SUMO tag removed with Ulp1; not shown: 6×His-SUMO, N-terminal, cleaved
T1 sequence (looked up): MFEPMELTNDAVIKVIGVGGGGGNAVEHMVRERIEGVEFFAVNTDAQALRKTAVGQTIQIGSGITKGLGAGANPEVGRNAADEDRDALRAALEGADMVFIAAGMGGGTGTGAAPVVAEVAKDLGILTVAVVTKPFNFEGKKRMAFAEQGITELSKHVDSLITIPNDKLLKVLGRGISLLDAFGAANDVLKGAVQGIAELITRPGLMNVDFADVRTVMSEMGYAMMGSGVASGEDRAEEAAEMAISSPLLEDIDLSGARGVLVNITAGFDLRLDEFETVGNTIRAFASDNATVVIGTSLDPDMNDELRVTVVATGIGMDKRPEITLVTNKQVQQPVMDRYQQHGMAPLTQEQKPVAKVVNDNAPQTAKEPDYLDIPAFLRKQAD

6×His-SUMO-FtsZ = target: T2, 6×His-SUMO-FtsZ (Escherichia coli, UniProt P0A9A6 1-383); assay: BLI; 6×His-SUMO fusions of FtsZ or its parts, or SUMO alone (0.5 µM), held on Ni-NTA biosensors, untagged ZapC in solution; Octet-Red96, 30°C, 1× Pol buffer (50 mM HEPES-NaOH pH 6.8, 50 mM KCl, 10 mM MgCl2); apparent Kd from the signal at the end of association against concentration, one-site fit; three repeats with mean (X) and SD
T2 construct: FtsZ of Escherichia coli, full length, fused behind 6×His-SUMO; Forward primer BsaI-out-F starts the FtsZ insert at codon 2; source: E. coli BL21(DE3), plasmid pLY17, purified (Ni-NTA); not shown: 6×His-SUMO, N-terminal, kept
T2 sequence (looked up): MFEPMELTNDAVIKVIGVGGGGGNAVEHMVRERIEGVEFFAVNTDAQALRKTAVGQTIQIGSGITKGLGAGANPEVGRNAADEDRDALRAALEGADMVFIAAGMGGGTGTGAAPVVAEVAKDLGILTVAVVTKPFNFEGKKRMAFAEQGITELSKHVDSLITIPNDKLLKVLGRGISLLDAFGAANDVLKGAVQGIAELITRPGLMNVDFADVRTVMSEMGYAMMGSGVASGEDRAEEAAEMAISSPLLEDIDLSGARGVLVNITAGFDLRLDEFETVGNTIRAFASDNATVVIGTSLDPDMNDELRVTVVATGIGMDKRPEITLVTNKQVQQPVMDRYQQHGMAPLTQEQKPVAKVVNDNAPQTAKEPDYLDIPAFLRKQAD

ZapC (untagged) [2] = target: B2; assay: as above
[3] = target: T3, 6×His-ZapC double mutant (F30D, K94D) (Escherichia coli, UniProt P75862 1-180, F30D | K94D); assay: BLI; 6×His-ZapC or its mutants (0.5 µM) loaded on Ni-NTA biosensors; FtsZ or its variants in solution; Octet-Red96, 30°C, 1× Pol buffer (50 mM HEPES-NaOH pH 6.8, 50 mM KCl, 10 mM MgCl2); apparent Kd from the signal at the end of association, one-site fit
T3 construct: ZapC, Escherichia coli; The text calls it only 'the double mutant' after naming ZapC^F30D and ZapC^K94D; also called the double mutant; source: E. coli, derivative of pSD323, purified (Ni-NTA) as for FtsZ; not shown: 6×His, N-terminal, kept

FtsZ^F285S (untagged) = target: T4, FtsZ^F285S (untagged) (Escherichia coli, UniProt P0A9A6 1-383, F285S); assay: as above
T4 construct: FtsZ, Escherichia coli; source: E. coli BL21(DE3), derivative of pLY17, purified (Ni-NTA; 6×His-SUMO tag removed with Ulp1); not shown: 6×His, N-terminal, cleaved; SUMO, N-terminal, cleaved
T4 sequence (looked up): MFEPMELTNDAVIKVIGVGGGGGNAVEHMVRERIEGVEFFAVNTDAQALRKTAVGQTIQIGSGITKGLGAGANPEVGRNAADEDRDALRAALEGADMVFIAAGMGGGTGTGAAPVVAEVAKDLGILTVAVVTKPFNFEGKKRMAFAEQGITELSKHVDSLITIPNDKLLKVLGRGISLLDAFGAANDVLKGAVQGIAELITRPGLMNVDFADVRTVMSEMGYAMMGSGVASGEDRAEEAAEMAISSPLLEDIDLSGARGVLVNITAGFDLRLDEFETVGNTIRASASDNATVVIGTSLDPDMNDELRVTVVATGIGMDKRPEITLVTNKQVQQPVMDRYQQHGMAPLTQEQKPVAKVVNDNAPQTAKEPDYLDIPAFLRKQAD

[4] = target: B4; assay: as above
SUMO-FtsZ = target: T5, SUMO-FtsZ (Escherichia coli, UniProt P0A9A6 1-383); assay: BLI; SUMO fusions of FtsZ or its parts, or SUMO alone (0.5 µM), held on Ni-NTA biosensors; untagged ZapC in solution; Octet-Red96, 30°C, 1× Pol buffer; apparent Kd from the signal at the end of association, one-site fit
T5 construct: FtsZ, Escherichia coli; also called 6×His-SUMO-FtsZ; SUMO fusion containing full-length FtsZ; source: E. coli BL21(DE3), plasmid pLY17 (pE-SUMO-Amp, PT7::6×his-sumo-ftsZ), purified (Ni-NTA); not shown: 6×His, N-terminal, kept; SUMO, N-terminal, kept
T5 sequence (looked up): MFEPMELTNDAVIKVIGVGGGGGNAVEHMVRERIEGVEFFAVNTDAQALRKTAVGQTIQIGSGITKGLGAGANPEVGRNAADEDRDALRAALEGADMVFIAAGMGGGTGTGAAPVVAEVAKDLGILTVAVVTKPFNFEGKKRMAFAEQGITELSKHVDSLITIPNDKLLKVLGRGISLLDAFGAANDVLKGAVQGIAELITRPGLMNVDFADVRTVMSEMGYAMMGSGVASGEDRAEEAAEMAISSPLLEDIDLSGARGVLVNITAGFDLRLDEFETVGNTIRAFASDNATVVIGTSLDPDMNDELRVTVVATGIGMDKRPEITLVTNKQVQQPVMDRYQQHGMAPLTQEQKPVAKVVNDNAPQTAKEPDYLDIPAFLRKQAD

ZapC (untagged) [5] = target: B6; assay: as above
6×His-ZapC = target: B5; assay: BLI; 6×His-ZapC or its mutants (0.5 µM) loaded on Ni-NTA biosensors; FtsZ or its variants in solution; Octet-Red96, 30°C, 1× Pol buffer (50 mM HEPES-NaOH pH 6.8, 50 mM KCl, 10 mM MgCl2); apparent Kd from the signal at the end of association, one-site fit

B1: 6×His-ZapC F30D, K94D (natural protein)
chain: not shown
notes: ZapC of Escherichia coli with F30D and K94D; Derivative of pSD323 by site-directed mutagenesis; also called ZapC^F, K; -ZapCF, K; source: E. coli, plasmid pLY317 (pQE80L, Plac::6Xhis-zapC F30D, K94D), purified (Ni-NTA); not shown: His6, N-terminal, kept
In the case of B1, the Kd [1] is reported as 6.39 µM and 5.16 µM and 4.77 µM and 5.44 µM.

For B2, the Kd (6×His-SUMO-FtsZ) was 1.5 µM and 1.28 µM and 1.9 µM and 1.56 µM.

B3: 6×His-SUMO-FtsZ 316-383 (domain or fragment, Escherichia coli, UniProt P0A9A6 316-383, looked up)
chain: GMDKRPEITLVTNKQVQQPVMDRYQQHGMAPLTQEQKPVAKVVNDNAPQTAKEPDYLDIPAFLRKQAD
notes: source: E. coli BL21(DE3), plasmid pLY342, purified (Ni-NTA); not shown: 6×His-SUMO, N-terminal, kept
B3 was tested, and the Kd (ZapC (untagged) [2]) was 11.2 µM and 10.4 µM and 8.11 µM and 9.89 µM.

In the case of B4, the “fold increase of Kd against wild-type ZapC” value [3] is reported as 12 fold.

With B5 the Kd (FtsZ^F285S (untagged)) was 6.37 µM and the Kd [4] was 0.39 µM.

Binder B6 has a Kd (SUMO-FtsZ) of 1.5 µM.

B7: SUMO-FtsZ^316-383 (domain or fragment, Escherichia coli, UniProt P0A9A6 316-383, looked up)
chain: GMDKRPEITLVTNKQVQQPVMDRYQQHGMAPLTQEQKPVAKVVNDNAPQTAKEPDYLDIPAFLRKQAD
notes: Held on Ni-NTA biosensors; plasmid construction is in the Supplemental Information; also called SUMO fusion containing the CTL and CTP; source: E. coli, purified SUMO fusion; not shown: 6×His, N-terminal, kept; SUMO, N-terminal, kept
B7 showed a Kd (ZapC (untagged) [5]) of 10 µM.

B8: FtsZ^1–370 (domain or fragment, Escherichia coli, UniProt P0A9A6 1-370, looked up)
chain: MFEPMELTNDAVIKVIGVGGGGGNAVEHMVRERIEGVEFFAVNTDAQALRKTAVGQTIQIGSGITKGLGAGANPEVGRNAADEDRDALRAALEGADMVFIAAGMGGGTGTGAAPVVAEVAKDLGILTVAVVTKPFNFEGKKRMAFAEQGITELSKHVDSLITIPNDKLLKVLGRGISLLDAFGAANDVLKGAVQGIAELITRPGLMNVDFADVRTVMSEMGYAMMGSGVASGEDRAEEAAEMAISSPLLEDIDLSGARGVLVNITAGFDLRLDEFETVGNTIRAFASDNATVVIGTSLDPDMNDELRVTVVATGIGMDKRPEITLVTNKQVQQPVMDRYQQHGMAPLTQEQKPVAKVVNDNAPQTAKEPD
notes: FtsZ, Escherichia coli, residues 1-370; Plasmid construction is in the Supplemental Information; also called FtsZ lacking the CTP; source: E. coli BL21(DE3), SUMO-tag purification system, purified; not shown: 6×His, N-terminal, cleaved; SUMO, N-terminal, cleaved
With B8 the “fold decrease of affinity against wild-type FtsZ” value (6×His-ZapC) was ~3 fold.
